{"source": "patent US20110045554A1", "about": "(University of California, published 2011)", "binders": {"B1": {"name": "Methanococcus jannaschii gamma-Prefoldin (γ-PFD) (other)", "chain": "MVNEVIDINEAVRAYIAQIEGLRAEIGRLDATIATLRQSLATLKSLKTLGEGKTVLVPVGSIAQVEMKVEKMDKVVVSVGQNISAELEYEEALKYIEDEIKKLLTFRLVLEQAIAELYAKIEDLIAEAQQTSEEEKAEEEENEEKAE", "notes": "Recombinant protein expressed in E. coli from the genomic M. jannaschii gene; It forms long filaments of identical subunits; also called γ prefoldin; Mj-γ-PFD"}}, "key": {"citrate synthase": {"target": "citrate synthase", "assay": "cell-based or functional assay"}, "[1]": {"target": "the molecule itself", "assay": "transmission electron microscopy; self-association into filaments"}}}
{"binder": "B1", "values": [{"measurement": "reduction of citrate synthase aggregation at 45° C.", "setting": "citrate synthase", "value": "2 :1 monomer-to-monomer stoichiometric ratio"}, {"measurement": "stabilization of citrate synthase against aggregation at 45° C.", "setting": "citrate synthase", "value": "5 :1 monomer-to-monomer stoichiometric ratio"}, {"measurement": "binding result", "setting": "[1]", "value": "binds"}]}
